The results in this text go back to the DeepSol protein solubility set.

The nature of this data set: soluble on expression in E. coli; label from the status in PepcDB or PDB records.
“MEPYIKALITDSYEQNKNFFRCRFMKNRRGDECNFVGTFSDTLTHFSIHTKVYLFECEGCTKQVVDFMDLVEHRSPSTGAICRGTVENMRQLRLERMKTIDAHRCRNVFIVGATRSEFEDYLRYKNTHGKQQSFGTPLYNDNEEEQTRHQPQQQRSSTPLAPTTPTPPPPTQAPTNHRELLLDFPLPVDFSRPPPVIPPEYFFNAPSVSQQHHQRSQYQHYAPQPQGNRTPGYVARPITPHGNPKPQNYQIGGGWNPYANPPSAKDAPATVRDNRSPSRPRGDFRRDRSQSRGAETHCQQSYQPPADPLQDRSRNGRSPPMGTHSHYGQNAKPAQNGNTSHYELRSRSRGRATVPMNANFRAGHQTGSSSRLESRSRATASVGARAPSRAPAPSSTSRETRSTRRSPSKGPSAPAYTLPFGGSTPNHEPMDLELEDPVPPPRPDRPRASTSLNTSVSQIKRNEVQTGVYNIRPQRVQDTVQKARTAVGYAGTRNRSPLREADAEEIAATEALKNRFAVKSRGTAKAKANSNRGAALLESIEPTNRKIETAEEREKKQNDLYLEKMRKIREKQRLEQEKIDDVVVDSGNLPTIAPNAAGTPPPQSVAAMLEPKEESEEDEPSTSASVPFQRRMNSPQTHATSYARRSDGKRHPSKSRSSRDDRANRRDRDRDSDGRCGDDRRRDHRSHPYERH”: the “soluble on expression in E. coli” value is on record as “not soluble”.
In the case of “MAENFVVVDGGVVAPKGFKANGHKDRKYGAALIYSEADAVAAGVFTTNKVYAHPVALSKDTLVNNNVFRAIVANSGNANCFTKGGMEDAELLVKKAAELLKIPENQVLSASTGVIGRKMPMDIISLEVERAFENITMESSNENASKAIMTTDAFPKTVAVEFEVNGKSVRIGGIAKGAGMIAPNMLHATMLGFITTDIEISKEDLTNSLQKATDESFNNAVVDGDMSTNDTVYVLANAQSGVKYTDCKEEFDHALTYVSKELAKMIVSDGEGAKKLIEATVFGAETKEDAKKASMSIVRSLLLKTAVFGADPNWGRIAAAVGYSGAEMDMNNFDIIISDISSEKQAILVKAGEQIADCGTPELKLAEEIMKEDKIKIIVDLKMGSFENTAFGCDLGYDYVKINSEYTTLEHHHHHH” it was “not soluble”; in that of “MHHHHHHSSGRENLYFQGMEELIPLVNRLQDAFSALGQSCLLELPQIAVVGGQSAGKSSVLENFVGRDFLPRGSGIVTRRPLVLQLITSKAEYAEFLHCKGKKFTDFDEVRLEIEAETDRVTGMNKGISSIPINLRVYSPHVLNLTLIDLPGITKVPVGDQPPDIEYQIREMIMQFITRENCLILAVTPANTDLANSDALKLAKEVDPQGLRTIGVITKLDLMDEGTDARDVLENKLLPLRRGYVGVVNRSQKDIDGKKDIKAAMLAERKFFLSHPAYRHIADRMGTPHLQKVLNQQLTNHIRDTLPNFRNKLQGQLLS”, “soluble”.
In the case of “MGSDKIHHHHHHMKTVLDVKNLSVDFAQDGRIVHAVRGVSFHVGKGETVALVGESGSGKSVTALSSVDLLPPSAQLNGSITYNGEQMIGASEAALRRVRGNDISFIFQEPMTSLNPLHTLERQITESLTLHQGLRGQAARDRIIQLLTKVGIRDPETRLGAYPHQLSGGQRQRVMIAMALANGPELLIADEPTTALDVTIQAQILDLLAELKRRERMSLLFITHDLAIVRRIADRVCVMQGGEIVEQGPTKTIFDNPQHPYTQKLLGAEPSGRPDPVPEDAKEILTTDKLRIWFPIQRGLLRRTVGHVKAVNEATLSVRQGETLGVVGESGSGKTTLALAIMRLIRSEGPIDFMDQHIPSLGKTELRTLRRDIQIVFQDPFGSLSPRMTIEQIVAEGLTVQGVNSTGRRRRVSEILEEVGLDPAMMHRYPHEFSGGQRQRIAIARAMILRPKLVVLDEPTSALDMTVQVQIVDLLRRLQRDHKLAFLFISHDLKVVRALSHKVMVMKQGDVVEAGRTEDLFANPRTTYTRELMKAAFGDASAA” it was “not soluble”.
As for “MGSDKIHHHHHHMVQTVYKNSDQTVFEDAKALFQLNKNILLKGPTGSGKTKLAETLSNVMKLPMHQVNCSVDLDTESLLGFKTIHTNEEGHQEIVFIDGPVIKAMKEGHILYIDEINMAKPETLPILNGVLDYRRQLTNPYTGEVIKAAPGFNVIAAINEGYVGTLPMNEALKNRFIVIEVDYIDGDILKTVIKEQSKLQDEQLIQHIVKFNEDLRTMTKQGQISEEAASIRALIDLSDLATVMPIERAVQRTIIDKLEDEREQQAILNAIELNF”, the “soluble on expression in E. coli” value is “not soluble”.
